Experimental findings from publication PMC10226619, “The SAGA HAT module is tethered by its SWIRM domain and modulates activity of the SAGA DUB module” (Biochimica et biophysica acta. Gene regulatory mechanisms, 2023) are described below.

The target of this experiment is T1, Spt7 with a C-terminal TAP tag (S. cerevisiae, UniProt P35177 1-1332).
T1 construct: Spt7, SAGA core subunit, S. cerevisiae; expressed at endogenous level; SAGA was captured on IgG Sepharose by the TAP tag and released from the beads by TEV cleavage of the tag; also called Spt7-TAP; not shown: TAP, C-terminal, kept
T1 sequence (looked up): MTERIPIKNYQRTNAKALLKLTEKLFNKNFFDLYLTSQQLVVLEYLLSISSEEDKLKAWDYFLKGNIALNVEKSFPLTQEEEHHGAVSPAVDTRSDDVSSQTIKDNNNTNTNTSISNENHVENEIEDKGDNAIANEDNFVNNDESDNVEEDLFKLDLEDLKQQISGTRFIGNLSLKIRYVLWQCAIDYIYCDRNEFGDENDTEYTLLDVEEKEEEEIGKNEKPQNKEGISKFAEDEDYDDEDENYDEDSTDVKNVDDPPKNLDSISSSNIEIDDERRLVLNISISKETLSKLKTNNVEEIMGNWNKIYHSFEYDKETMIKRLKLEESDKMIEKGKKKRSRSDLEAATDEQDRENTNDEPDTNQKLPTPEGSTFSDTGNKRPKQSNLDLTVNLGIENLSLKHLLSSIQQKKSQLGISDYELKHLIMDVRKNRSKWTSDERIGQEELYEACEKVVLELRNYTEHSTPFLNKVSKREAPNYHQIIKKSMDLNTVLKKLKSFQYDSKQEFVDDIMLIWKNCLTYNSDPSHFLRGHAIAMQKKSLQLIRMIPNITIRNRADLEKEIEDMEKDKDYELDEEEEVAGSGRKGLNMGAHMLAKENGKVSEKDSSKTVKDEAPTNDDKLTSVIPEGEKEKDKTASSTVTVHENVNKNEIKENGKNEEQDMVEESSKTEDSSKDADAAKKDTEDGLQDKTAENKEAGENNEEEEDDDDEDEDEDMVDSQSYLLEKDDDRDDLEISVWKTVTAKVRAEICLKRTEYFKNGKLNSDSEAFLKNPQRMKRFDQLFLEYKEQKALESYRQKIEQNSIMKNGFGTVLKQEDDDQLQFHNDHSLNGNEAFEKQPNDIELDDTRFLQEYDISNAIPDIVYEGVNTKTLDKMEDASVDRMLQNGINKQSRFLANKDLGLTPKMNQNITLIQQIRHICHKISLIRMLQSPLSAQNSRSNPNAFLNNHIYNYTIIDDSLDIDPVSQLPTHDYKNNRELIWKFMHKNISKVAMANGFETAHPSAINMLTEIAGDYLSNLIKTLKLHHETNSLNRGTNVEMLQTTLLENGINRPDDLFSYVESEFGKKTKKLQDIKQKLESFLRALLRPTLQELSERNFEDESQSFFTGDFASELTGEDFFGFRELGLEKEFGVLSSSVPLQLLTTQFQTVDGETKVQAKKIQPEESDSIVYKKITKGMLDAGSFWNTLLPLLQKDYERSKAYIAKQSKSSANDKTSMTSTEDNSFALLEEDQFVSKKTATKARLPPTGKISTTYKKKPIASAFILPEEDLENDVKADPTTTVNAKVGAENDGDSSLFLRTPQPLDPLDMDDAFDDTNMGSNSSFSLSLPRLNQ
The experiment in a line: affinity purification with mass spectrometry; SAGA purified by Spt7-TAP from yeast with the Ada2 SWIRM domain deleted (YCW20): IgG Sepharose, TEV cleavage, HiTrap Q; LC-MS/MS, total spectrum counts normalized to Spt7. The settings on record: partners not purified.

B1: Ada2 ΔSWIRM (Δ residues 349–434, chromosomal deletion) (natural protein, S. cerevisiae, UniProt Q02336 1-434, looked up)
chain: MSNKFHCDVCSADCTNRVRVSCAICPEYDLCVPCFSQGSYTGKHRPYHDYRIIETNSYPILCPDWGADEELQLIKGAQTLGLGNWQDIADHIGSRGKEEVKEHYLKYYLESKYYPIPDITQNIHVPQDEFLEQRRHRIESFRERPLEPPRKPMASVPSCHEVQGFMPGRLEFETEFENEAEGPVKDMVFEPDDQPLDIELKFAILDIYNSRLTTRAEKKRLLFENHLMDYRKLQAIDKKRSKEAKELYNRIKPFARVMTAQDFEEFSKDILEELHCRARIQQLQEWRSNGLTTLEAGLKYERDKQARISSFEKFGASTAASLSEGNSRYRSNSAHRSNAEYSQNYSEN
notes: Ada2, S. cerevisiae, without the SWIRM domain (residues 349–434 substituted with KanMX in the gene); source: S. cerevisiae strain YCW20, SWIRM domain deleted by homologous recombination, in lysate
As to B1, the “fold depletion against wild type SAGA” value was approximately 7 fold.

B2: Ada3 (endogenous) (natural protein, S. cerevisiae (endogenous in yeast), UniProt P32494 1-702, looked up)
chain: MPRHGRRGKLPKGEKLPKKEGGDNTPSKLLSSMLKTLDLTFERDIGMLNGKSVRSIPNKKTLLELQSQLDSLNEILGTIARGDQETIEALRKIRDSKNEKQANDEKQETSNADGQHESSTATEETNIIDKGVQSPPKPPPSNEISGTIENDVESIKQAADNMAKEEINEDKDLQVHRDQPREKRPFDSETENRATENENTQRPDNKKQKIDVDKMENDPTVKNPKSEFVVSQTLPRAAAALGLFNEEGLESTGEDFLKKKYNVASYPTNDLKDLLPGELPDMDFSHPKPTNQIQFNTFLAFVENFFKDLSDDNLKFLKMKYIIPDSLQFDKTYDPEVNPFIIPKLGPLYTDVWFKDENDKNSAYKKPSPYSNDASTILPKKSANELDDNALESGSISCGPLLSRLLSAVLKDDNDKSELQSSKIIRDGGLPRTGGEDDIQSFRNNNNDTVDMTLSQENGPSVQTPDNDIDEEASFQAKLAENKGSNGGTTSTLPQQIGWITNGINLDYPTFEERLKRELKYVGIYMNLPKDENNPNSDDPDWVTGREDDEISAELRELQGTLKQVTKKNQKRKAQLIPLVERQLAWQEYSSILEDLDKQIDQAYVKRIRVPKKRKKHHTAASNNVNTGTTSQIAQQKAANSSLKSLLDKRQRWINKIGPLFDKPEIMKRIPNESVFKDMDQEEDEDEADVFAQNTNKDVELN
notes: Ada3, SAGA HAT module subunit, S. cerevisiae; source: endogenous, S. cerevisiae lysate / whole cell extract
With B2, the “fold depletion against wild type SAGA” value is approximately 7 fold.

B3: Gcn5 (endogenous) (enzyme, S. cerevisiae (endogenous in yeast), UniProt Q03330 1-439, looked up)
chain: MVTKHQIEEDHLDGATTDPEVKRVKLENNVEEIQPEQAETNKQEGTDKENKGKFEKETERIGGSEVVTDVEKGIVKFEFDGVEYTFKERPSVVEENEGKIEFRVVNNDNTKENMMVLTGLKNIFQKQLPKMPKEYIARLVYDRSHLSMAVIRKPLTVVGGITYRPFDKREFAEIVFCAISSTEQVRGYGAHLMNHLKDYVRNTSNIKYFLTYADNYAIGYFKKQGFTKEITLDKSIWMGYIKDYEGGTLMQCSMLPRIRYLDAGKILLLQEAALRRKIRTISKSHIVRPGLEQFKDLNNIKPIDPMTIPGLKEAGWTPEMDALAQRPKRGPHDAAIQNILTELQNHAAAWPFLQPVNKEEVPDYYDFIKEPMDLSTMEIKLESNKYQKMEDFIYDARLVFNNCRMYNGENTSYYKYANRLEKFFNNKVKEIPEYSHLID
notes: Gcn5, histone acetyltransferase subunit of the SAGA HAT module, S. cerevisiae; source: endogenous, S. cerevisiae lysate / whole cell extract
Turning to B3, the “fold depletion against wild type SAGA” value is approximately 7 fold.

B4: Sgf29 (endogenous) (natural protein, S. cerevisiae (endogenous in yeast), UniProt P25554 1-259, looked up)
chain: MDGYWDVVVSSLQDIYNANEVIPFDDELQTKKLNFLNMSKDQLQLHLNTFQEHMENVNRVHRILDNVRSNLSLMLNQSREEKSEENTEDAEEGEGTRMALSQGKKAVGKVGRSYWTSEYNPNAPILVGSEVAYKPRRGSADGEWIQCEVLKVVADGTRFEVRDPEPDELGNSGKVYKCNRKELLLIPPGFPTKNYPPGTKVLARYPETTTFYPAIVIGTKRDGTCRLRFDGEEEVDKETEVTRRLVLPSPTALANLARK
notes: Sgf29, SAGA HAT module subunit, S. cerevisiae; source: endogenous, S. cerevisiae lysate / whole cell extract
As for B4, the “fold depletion against wild type SAGA” value is approximately 7 fold.
